Test results taken from US20190322720A1.

What was measured:
[1] = target: 16C3 antigen (CEACAM5 and/or CEACAM6) on tumor cells; test: flow cytometry, HT-29 colorectal cells
[2] = target: 16C3 antigen (CEACAM5 and/or CEACAM6) on tumor cells; test: flow cytometry, CFPAC-1 pancreatic cells
[3] = target: 16C3 antigen (CEACAM5 and/or CEACAM6) on tumor cells; test: flow cytometry, LS174T colorectal cells
[4] = target: 16C3 antigen (CEACAM5 and/or CEACAM6) on tumor cells; test: rosetting assay, h16C3-coupled beads on CFPAC-1 cells in the presence of 4B6 at 5 µg/ml
[5] = target: 16C3 antigen (CEACAM5 and/or CEACAM6) on tumor cells; test: flow cytometry, CFPAC-1 pancreatic cells; remark: listed apart in the source
[6] = target: 16C3 antigen (CEACAM5 and/or CEACAM6) on tumor cells; test: rosetting assay, antibody-coupled beads on CFPAC-1 cells
[7] = target: 16C3 antigen (CEACAM5 and/or CEACAM6) on tumor cells; test: flow cytometry, LS174T colorectal cells; remark: listed apart in the source
[8] = target: 16C3 antigen (CEACAM5 and/or CEACAM6) on tumor cells; test: flow cytometry, HT-29 colorectal cells; remark: listed apart in the source

- % Cell Staining [1]: 26.3%
- mean fluorescence intensity [1]: 44 mfi
- mean fluorescence intensity [2]: 91 mfi
- % Cell Staining [3]: 69.4%
- mean fluorescence intensity [3]: 103 mfi
- Rosetted cells (>8 beads) [4]: 50%
- % Cell Staining [5]: 91.8%
- mean fluorescence intensity [5]: 91 mfi
- Rosetted cells (>8 beads) [6]: 53%
- mean fluorescence intensity [7]: 103 mfi
- mean fluorescence intensity [8]: 44 mfi
B1: h16C3 (antibody, from a related filing, V domains shown)
VH: QVQLVQSGAEVKKPGASVKVSCKASGYTFTDYAMHWVRQAPGQRLEWMGLISTYSGDTKYNQNFQGRVTMTVDKSASTAYMELSSLRSEDTAVYYCARGDYSGSRYWFAYWGQGTLVTVSS
VL: DIQMTQSPSSLSASVGDRVTITCQASENIYGALNWYQRKPGKSPKLLIYGASNLATGMPSRFSGSGSGTDYTFTISSLQPEDIATYYCQQVLSSPYTFGGGTKLEIKR
